{
  "source": "paper PMC7435863",
  "about": "“Single Residue Substitution at N-Terminal Affects Temperature Stability and Activity of L2 Lipase” (Molecules, 2020)",
  "data": [
    {"substrate": "CCCCCCCCCC(=O)Oc1ccc([N+](=O)[O-])cc1", "assay": "pNP ester hydrolysis, Lineweaver-Burk", "type": "biochemical, Bacillus sp. L2", "settings": "70 °C (optimum temperature), 0.6-5.0 mM substrate", "description": "pNP ester hydrolysis, Lineweaver-Burk on wt-L2 lipase", "units": {"Km": "µM", "kcat": "s⁻¹", "kcat/Km": "M⁻¹ s⁻¹", "Vmax": "µM/min"}, "values": [
      {"protein": "wt-L2 lipase (Bacillus sp. L2) (protein, recombinant from pET32(B)+ in E. coli BL21(DE3), Ni Sepharose purified) ASLRANDAPIVLLHGFTGWGREEMFGFKYWGGVRGDIEQWLNDNGYRTYTLAVGPLSSNWDRACEAYAQLVGGTVDYGAAHAAKHGHARFGRTYPGLLPELKRGGRIHIIAHSQGGQTARMLVSLLENGSQEEREYAKAHNVSLSPLFEGGHHFVLSVTTIATPHDGTTLVNMVDFTDRFFDLQKAVLEAAAVASNVPYTSQVYDFKLDQWGLRRQPGESFDHYFERLKRSPVWTSTDTARYDLSVSGAEKLNQWVQASPNTYYLSFSTERTYRGALTGNHYPELGMNAFSAVVCAPFLGSYRNPTLGIDDRWLENDGIVNTVSMNGPKRGSSDRIVPYDGTLKKGVWNDMGTYNVDHLEIIGVDPNPSFDIRAFYLRLAEQLASLLP", "Km": 1080, "kcat": 175, "kcat/Km": 162000},
      {"protein": "wt-L2 lipase (Bacillus sp. L2; A36V) (protein, recombinant from pET32(B)+ in E. coli BL21(DE3), Ni Sepharose purified) ASLRANDVPIVLLHGFTGWGREEMFGFKYWGGVRGDIEQWLNDNGYRTYTLAVGPLSSNWDRACEAYAQLVGGTVDYGAAHAAKHGHARFGRTYPGLLPELKRGGRIHIIAHSQGGQTARMLVSLLENGSQEEREYAKAHNVSLSPLFEGGHHFVLSVTTIATPHDGTTLVNMVDFTDRFFDLQKAVLEAAAVASNVPYTSQVYDFKLDQWGLRRQPGESFDHYFERLKRSPVWTSTDTARYDLSVSGAEKLNQWVQASPNTYYLSFSTERTYRGALTGNHYPELGMNAFSAVVCAPFLGSYRNPTLGIDDRWLENDGIVNTVSMNGPKRGSSDRIVPYDGTLKKGVWNDMGTYNVDHLEIIGVDPNPSFDIRAFYLRLAEQLASLLP", "Km": 520, "Vmax": 81300, "kcat": 136, "kcat/Km": 207000},
      {"protein": "wt-L2 lipase (Bacillus sp. L2; A36E) (protein, recombinant from pET32(B)+ in E. coli BL21(DE3), Ni Sepharose purified) ASLRANDEPIVLLHGFTGWGREEMFGFKYWGGVRGDIEQWLNDNGYRTYTLAVGPLSSNWDRACEAYAQLVGGTVDYGAAHAAKHGHARFGRTYPGLLPELKRGGRIHIIAHSQGGQTARMLVSLLENGSQEEREYAKAHNVSLSPLFEGGHHFVLSVTTIATPHDGTTLVNMVDFTDRFFDLQKAVLEAAAVASNVPYTSQVYDFKLDQWGLRRQPGESFDHYFERLKRSPVWTSTDTARYDLSVSGAEKLNQWVQASPNTYYLSFSTERTYRGALTGNHYPELGMNAFSAVVCAPFLGSYRNPTLGIDDRWLENDGIVNTVSMNGPKRGSSDRIVPYDGTLKKGVWNDMGTYNVDHLEIIGVDPNPSFDIRAFYLRLAEQLASLLP", "Km": 4380, "Vmax": 71900, "kcat": 120, "kcat/Km": 27200},
      {"protein": "wt-L2 lipase (Bacillus sp. L2; A36P) (protein, recombinant from pET32(B)+ in E. coli BL21(DE3), Ni Sepharose purified) ASLRANDPPIVLLHGFTGWGREEMFGFKYWGGVRGDIEQWLNDNGYRTYTLAVGPLSSNWDRACEAYAQLVGGTVDYGAAHAAKHGHARFGRTYPGLLPELKRGGRIHIIAHSQGGQTARMLVSLLENGSQEEREYAKAHNVSLSPLFEGGHHFVLSVTTIATPHDGTTLVNMVDFTDRFFDLQKAVLEAAAVASNVPYTSQVYDFKLDQWGLRRQPGESFDHYFERLKRSPVWTSTDTARYDLSVSGAEKLNQWVQASPNTYYLSFSTERTYRGALTGNHYPELGMNAFSAVVCAPFLGSYRNPTLGIDDRWLENDGIVNTVSMNGPKRGSSDRIVPYDGTLKKGVWNDMGTYNVDHLEIIGVDPNPSFDIRAFYLRLAEQLASLLP", "Km": 1340, "Vmax": 76300, "kcat": 127, "kcat/Km": 94900}
    ]}
  ]
}
